Experimental data: US9249224B2 (RINAT NEUROSCIENCE CORP., priority 2011, dated 2016)

Test system: IGF-1
Assay: Serum IGF-1 levels in cynomolgus monkeys after a single antibody dose
Format: in vivo, cynomolgus monkey
Procedure: Serum samples were analyzed for changes in IGF-1 levels compared to baseline using an R&D Systems™ Quantikine™ human IGF-1 immunoassay kit (cat. #DG100).
To determine if GHR antagonist monoclonal antibodies can affect IGF-1, IGFBP-3, and ALS levels in vivo by inhibiting the function of GHR, the effect of humanized anti-human GHR antibody SS1 was tested in cynomolgus monkeys. A dose-response study was conducted to test for changes in IGF-1, IGFBP-3, and ALS levels following a single dose of SS1. Eight naïve female cynomolgus monkeys were injected intravenously with a single dose of SS1 or negative control human IgG2, in 1×PBS 0.01% Tween™ 20. Two monkeys were dosed with 30 mg/kg SS1, two were dosed with 10 mg/kg SS1, two were dosed with 3 mg/kg SS1, and two were dosed with 30 mg/kg negative control human IgG2Δa on Day 1. Serum samples were taken from all animals at the following timepoints: pre-dose, 24 h, 48 h, 72 h, 120 h, 144 h, 192 h, 240 h, 336 h, 528 h, 696 h. Serum was also taken from the 30 mg/kg SS1 and negative control treated animals at 864 h post-dose.
Six naïve female cynomolgus monkeys were injected either intravenously or subcutaneously with a single dose of […] or negative control human IgG2Δa in 1×PBS 0.01% Tween™ 20. Two monkeys were dosed with 3 mg/kg SS1 intravenously, two were dosed with 3 mg/kg SS1 subcutaneously, and two were dosed with 3 mg/kg negative control human IgG2Δa subcutaneously on Day 1. Serum samples were taken from all animals at the following timepoints: pre-dose, 24 h, 72 h, 120 h, 168 h, 216 h, 264 h, 312 h, 360 h, 408 h, 456 h and 504 h.

B1: SS1: humanized GHR antagonist antibody; VL SEQ ID NO: 7, VH SEQ ID NO: 8; hIgG2Δa heavy chain SEQ ID NO: 134, light chain SEQ ID NO: 135 (antibody)
heavy: EVQLVESGGGLVKPGGSLRLSCAASGFTFSDAWMDWVRQAPGKGLEWVAEIRSKANYHATYYAESVKGRFTISRDDSKNTLYLQMNSLKTEDTAVYYCTLIRDYWGQGTLVTVSSASTKGPSVFPLAPCSRSTSESTAALGCLVKDYFPEPVTVSWNSGALTSGVHTFPAVLQSSGLYSLSSVVTVPSSNFGTQTYTCNVDHKPSNTKVDKTVERKCCVECPPCPAPPVAGPSVFLFPPKPKDTLMISRTPEVTCVVVDVSHEDPEVQFNWYVDGVEVHNAKTKPREEQFNSTFRVVSVLTVVHQDWLNGKEYKCKVSNKGLPSSIEKTISKTKGQPREPQVYTLPPSREEMTKNQVSLTCLVKGFYPSDIAVEWESNGQPENNYKTTPPMLDSDGSFFLYSKLTVDKSRWQQGNVFSCSVMHEALHNHYTQKSLSLSPGK
light: EIVLTQSPGTLSLSPGERATLSCTATSSVSSSYLNWYQQKPGQAPRLLIYSTSNLASGIPDRFSGSGSGTDFTLTISRLEPEDFAVYYCHQYHRSTPTFGGGTKVEIKRTVAAPSVFIFPPSDEQLKSGTASVVCLLNNFYPREAKVQWKVDNALQSGNSQESVTEQDSKDSTYSLSSTLTLSKADYEKHKVYACEVTHQGLSSPVTKSFNRGEC
modifications: Humanized and/or affinity matured antibody sequence
serum IGF-1 levels (% change from baseline) (Table 10, cynomolgus monkeys, SS1 3 mg/kg IV single dose, 24 h post-injection): −43.6 +/− 0.5%
serum IGF-1 levels (% change from baseline) (Table 10, cynomolgus monkeys, SS1 3 mg/kg IV single dose, 48 h post-injection): −66.6 +/− 1.1%
serum IGF-1 levels (% change from baseline) (Table 10, cynomolgus monkeys, SS1 3 mg/kg IV single dose, 72 h post-injection): −67.1 +/− 1.6%
serum IGF-1 levels (% change from baseline) (Table 10, cynomolgus monkeys, SS1 3 mg/kg IV single dose, 120 h post-injection): −76.2 +/− 7.9%
serum IGF-1 levels (% change from baseline) (Table 10, cynomolgus monkeys, SS1 3 mg/kg IV single dose, 144 h post-injection): −68.4 +/− 1.1%
serum IGF-1 levels (% change from baseline) (Table 10, cynomolgus monkeys, SS1 3 mg/kg IV single dose, 192 h post-injection): −65.2 +/− 3.0%
serum IGF-1 levels (% change from baseline) (Table 10, cynomolgus monkeys, SS1 3 mg/kg IV single dose, 240 h post-injection): −34.5 +/− 17.8%
serum IGF-1 levels (% change from baseline) (Table 10, cynomolgus monkeys, SS1 3 mg/kg IV single dose, 336 h post-injection): 64.2 +/− 0.6%
serum IGF-1 levels (% change from baseline) (Table 10, cynomolgus monkeys, SS1 3 mg/kg IV single dose, 528 h post-injection): 85.1 +/− 46.0%
serum IGF-1 levels (% change from baseline) (Table 10, cynomolgus monkeys, SS1 3 mg/kg IV single dose, 696 h post-injection): 49.2 +/− 11.3%
serum IGF-1 levels (% change from baseline) (Table 10, cynomolgus monkeys, SS1 10 mg/kg IV single dose, 24 h post-injection): −43.4 +/− 2.2%
serum IGF-1 levels (% change from baseline) (Table 10, cynomolgus monkeys, SS1 10 mg/kg IV single dose, 48 h post-injection): −62.6 +/− 5.5%
serum IGF-1 levels (% change from baseline) (Table 10, cynomolgus monkeys, SS1 10 mg/kg IV single dose, 72 h post-injection): −67.1 +/− 4.7%
serum IGF-1 levels (% change from baseline) (Table 10, cynomolgus monkeys, SS1 10 mg/kg IV single dose, 120 h post-injection): −73.5 +/− 2.1%
serum IGF-1 levels (% change from baseline) (Table 10, cynomolgus monkeys, SS1 10 mg/kg IV single dose, 144 h post-injection): −76.0 +/− 0.1%
serum IGF-1 levels (% change from baseline) (Table 10, cynomolgus monkeys, SS1 10 mg/kg IV single dose, 192 h post-injection): −74.0 +/− 0.2%
serum IGF-1 levels (% change from baseline) (Table 10, cynomolgus monkeys, SS1 10 mg/kg IV single dose, 240 h post-injection): −70.9 +/− 1.9%
serum IGF-1 levels (% change from baseline) (Table 10, cynomolgus monkeys, SS1 10 mg/kg IV single dose, 336 h post-injection): −61.4 +/− 0.6%
serum IGF-1 levels (% change from baseline) (Table 10, cynomolgus monkeys, SS1 10 mg/kg IV single dose, 528 h post-injection): 25.7 +/− 11.8%
serum IGF-1 levels (% change from baseline) (Table 10, cynomolgus monkeys, SS1 10 mg/kg IV single dose, 696 h post-injection): 31.7 +/− 15.2%
serum IGF-1 levels (% change from baseline) (Table 10, cynomolgus monkeys, SS1 30 mg/kg IV single dose, 24 h post-injection): −43.2 +/− 3.0%
serum IGF-1 levels (% change from baseline) (Table 10, cynomolgus monkeys, SS1 30 mg/kg IV single dose, 48 h post-injection): −63.2 +/− 5.0%
serum IGF-1 levels (% change from baseline) (Table 10, cynomolgus monkeys, SS1 30 mg/kg IV single dose, 72 h post-injection): −68.5 +/− 5.8%
serum IGF-1 levels (% change from baseline) (Table 10, cynomolgus monkeys, SS1 30 mg/kg IV single dose, 120 h post-injection): −75.2 +/− 5.2%
serum IGF-1 levels (% change from baseline) (Table 10, cynomolgus monkeys, SS1 30 mg/kg IV single dose, 144 h post-injection): −77.5 +/− 5.6%
serum IGF-1 levels (% change from baseline) (Table 10, cynomolgus monkeys, SS1 30 mg/kg IV single dose, 192 h post-injection): −77.2 +/− 3.3%
serum IGF-1 levels (% change from baseline) (Table 10, cynomolgus monkeys, SS1 30 mg/kg IV single dose, 240 h post-injection): −74.8 +/− 3.4%
serum IGF-1 levels (% change from baseline) (Table 10, cynomolgus monkeys, SS1 30 mg/kg IV single dose, 336 h post-injection): −73.3 +/− 0.7%
serum IGF-1 levels (% change from baseline) (Table 10, cynomolgus monkeys, SS1 30 mg/kg IV single dose, 528 h post-injection): −73.0 +/− 0.9%
serum IGF-1 levels (% change from baseline) (Table 10, cynomolgus monkeys, SS1 30 mg/kg IV single dose, 696 h post-injection): −70.4 +/− 1.1%
serum IGF-1 levels (% change from baseline) (Table 10, cynomolgus monkeys, SS1 30 mg/kg IV single dose, 864 h post-injection): −8.8 +/− 2.9%
serum IGF-1 levels (% change from baseline) (Table 13, cynomolgus monkeys, SS1 3 mg/kg IV single dose, 24 hour post-injection): −35 +/− 4.4%
serum IGF-1 levels (% change from baseline) (Table 13, cynomolgus monkeys, SS1 3 mg/kg IV single dose, 72 hour post-injection): −64.8 +/− 2.7%
serum IGF-1 levels (% change from baseline) (Table 13, cynomolgus monkeys, SS1 3 mg/kg IV single dose, 120 hour post-injection): −71.6 +/− 1.8%
serum IGF-1 levels (% change from baseline) (Table 13, cynomolgus monkeys, SS1 3 mg/kg IV single dose, 168 hour post-injection): −70.2 +/− 2.7%
serum IGF-1 levels (% change from baseline) (Table 13, cynomolgus monkeys, SS1 3 mg/kg IV single dose, 216 hour post-injection): −64.5%
serum IGF-1 levels (% change from baseline) (Table 13, cynomolgus monkeys, SS1 3 mg/kg IV single dose, 264 hour post-injection): −36.0%
serum IGF-1 levels (% change from baseline) (Table 13, cynomolgus monkeys, SS1 3 mg/kg IV single dose, 312 hour post-injection): −30.3%
serum IGF-1 levels (% change from baseline) (Table 13, cynomolgus monkeys, SS1 3 mg/kg IV single dose, 360 hour post-injection): −27.8%
serum IGF-1 levels (% change from baseline) (Table 13, cynomolgus monkeys, SS1 3 mg/kg SQ single dose, 24 hour post-injection): −46.7 +/− 9.9%
serum IGF-1 levels (% change from baseline) (Table 13, cynomolgus monkeys, SS1 3 mg/kg SQ single dose, 72 hour post-injection): −62.5 +/− 2.5%
serum IGF-1 levels (% change from baseline) (Table 13, cynomolgus monkeys, SS1 3 mg/kg SQ single dose, 120 hour post-injection): −68.7 +/− 2.8%
serum IGF-1 levels (% change from baseline) (Table 13, cynomolgus monkeys, SS1 3 mg/kg SQ single dose, 168 hour post-injection): −65.6 +/− 4.1%
serum IGF-1 levels (% change from baseline) (Table 13, cynomolgus monkeys, SS1 3 mg/kg SQ single dose, 216 hour post-injection): −60.7%
serum IGF-1 levels (% change from baseline) (Table 13, cynomolgus monkeys, SS1 3 mg/kg SQ single dose, 264 hour post-injection): −40.9%
serum IGF-1 levels (% change from baseline) (Table 13, cynomolgus monkeys, SS1 3 mg/kg SQ single dose, 312 hour post-injection): −15.3%
serum IGF-1 levels (% change from baseline) (Table 13, cynomolgus monkeys, SS1 3 mg/kg SQ single dose, 360 hour post-injection): −4.2%
time until which serum IGF-1 remained below 60% baseline levels (cynomolgus monkeys, 3 mg/kg SS1 either SQ or IV): about 216 hour
time until which serum IGF-1 remained substantially lower than baseline (cynomolgus monkeys, SS1 3 mg/kg IV single dose): 240 h
time until which serum IGF-1 remained substantially lower than baseline (cynomolgus monkeys, SS1 10 mg/kg IV single dose): 336 h
time until which serum IGF-1 remained substantially lower than baseline (cynomolgus monkeys, SS1 30 mg/kg IV single dose): 696 h
serum IGF-1 decrease below baseline levels (cynomolgus monkeys, single IV dose of 3, 10 or 30 mg/kg SS1, by 120 hours): about 75%
serum IGF-1 decrease below control (cynomolgus monkeys, single dose 3 mg/kg SS1 subcutaneous (SC) or intravenous (IV), by 72 hours): about 63%
effect on serum IGF-1 levels in cynomolgus monkeys (single IV dose, dose-response): dose dependently reduces serum IGF-1 levels
